Biological target: T1, PBP1B I202F (E. coli, UniProt P02919 46-844, I202F)
T1 construct: PBP1B, E. coli, residues 46-844, made by mutagenesis of pDML924; Substitution first found in the suppressor screen of Markovski et al. 2016 (LpoB bypass); source: E. coli BL21(DE3), purified (membrane extract, HisTrap, thrombin, HiTrap SP ion exchange)
T1 sequence (looked up): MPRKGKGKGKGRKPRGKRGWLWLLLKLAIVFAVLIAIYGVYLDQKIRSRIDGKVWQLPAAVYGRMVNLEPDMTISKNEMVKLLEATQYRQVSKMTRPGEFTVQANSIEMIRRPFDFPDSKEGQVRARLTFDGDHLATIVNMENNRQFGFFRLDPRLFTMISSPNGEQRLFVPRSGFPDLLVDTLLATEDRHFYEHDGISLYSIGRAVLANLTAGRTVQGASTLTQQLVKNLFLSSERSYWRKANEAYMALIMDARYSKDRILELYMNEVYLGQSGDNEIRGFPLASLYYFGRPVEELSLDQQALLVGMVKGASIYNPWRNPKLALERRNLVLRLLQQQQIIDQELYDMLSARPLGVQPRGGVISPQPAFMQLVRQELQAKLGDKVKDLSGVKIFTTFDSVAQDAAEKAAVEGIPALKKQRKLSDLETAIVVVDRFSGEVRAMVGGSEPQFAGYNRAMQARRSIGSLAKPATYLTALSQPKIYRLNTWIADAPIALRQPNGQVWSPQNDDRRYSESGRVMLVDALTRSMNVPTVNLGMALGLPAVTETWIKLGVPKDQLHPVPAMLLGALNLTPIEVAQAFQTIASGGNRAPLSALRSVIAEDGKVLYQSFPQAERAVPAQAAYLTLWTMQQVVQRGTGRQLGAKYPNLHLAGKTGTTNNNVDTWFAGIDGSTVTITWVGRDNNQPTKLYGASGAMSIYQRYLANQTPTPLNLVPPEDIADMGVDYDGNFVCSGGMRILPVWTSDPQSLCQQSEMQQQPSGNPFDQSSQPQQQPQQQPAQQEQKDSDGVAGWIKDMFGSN
Test: SPR; PBP1B versions immobilised to the chip surface; CpoB versions injected from either 3.9 nM to 2 μM or from 78 nM to 40 μM; apparent KD by non-linear regression, at least three independent experiments
Details: both partners purified

B1: CpoB (full length) (natural protein, E. coli, UniProt P45955 27-263, looked up)
chain: QAPISSVGSGSVEDRVTQLERISNAHSQLLTQLQQQLSDNQSDIDSLRGQIQENQYQLNQVVERQKQILLQIDSLSSGGAAAQSTSGDQSGAAASTTPTADAGTANAGAPVKSGNANTDYNAAIALVQDKSRQDDAMVAFQNFIKNYPDSTYLPNANYWLGQLNYNKGKKDDAAYYFASVVKNYPKSPKAADAMFKVGVIMQDKGDTAKAKAVYQQVISKYPGTDGAKQAQKRLNAM
notes: CpoB, E. coli; The coiled-coil construct begins at residue 27, so the purified 'full length' protein may lack the signal peptide (surmise); source: E. coli BL21(DE3), purified (HisTrap, Superdex 200), as in Gray et al. 2015
Kd: > 2 µM

Source: publication PMC6220978, “Induced conformational changes activate the peptidoglycan synthase PBP1B” (Molecular Microbiology, 2018)
